# Assay results reported in US20170128596A1, “Peptide-Based Compounds and Their Uses for Tumor Imaging and Targeting” (Klinikum rechts der lsar der Technischen Universitaet …, priority 2014, published 2017).
# How the values were obtained:
# [1] = Ex vivo biodistribution in CT26 tumor-bearing mice by NIRF quantification; parameters: species or system mouse; conditions: i.v.
# Description: Regression equation of linear regression analysis (lower panel). The concentration of TPP[Cy5.5] in organs was calculated using this regression equation. Scale bar, 5 mm.
# For biodistribution tumor-bearing mice were sacrificed 12, 24 or 48 h after i.v. injection of TPP[Cy5.5]. Fluorescent signal intensities of 0.25 cm^3 tissue cubes, taken from the tumor, spleen, pancreas, liver, lung, duodenum, kidney, heart, and 0.25 ml of peripheral blood were measured as described above. Agarose-gel cubes with standardized concentrations were used to calculate the probe concentrations in the investigated tissue samples.
# After the mice had been sacrificed, the contents of TPP[Cy5.5] in the tumors and organs (spleen, pancreas, liver, lung, duodenum, kidney, heart and blood) were assessed. […] Fluorescence intensities of the tissues were measured as described in the imaging procedures chapter. Quantification of the Cy5.5 contents in the defined tissue volumes was calculated using fluorescence signal intensities of standards with defined concentrations. […] Fluorescence signal intensity was measured using the same instrument settings than for the tissue specimen (FIG. 10, upper panel). […] Linear regression equation of the standards was calculated with Microsoft Excel 2007 (FIG. 10, lower panel). The concentration of TPP[Cy5.5] in organs was calculated using the regression equation.
# [2] = Toxicity testing in healthy and tumor-bearing BALB/c mice
# Description: Concentrations up to 500 μg of TPP per mouse were tested in tumor-bearing mice (s.c. tumors, size 0.4 cm^3). The health status and the general behavior of mice were inspected. Animals were sacrificed on day 5 and the heart, liver, spleen, lung and kidneys examined for pathological changes using standard histological techniques.
# [3] = target: membrane-bound Heat shock protein 70 (Hsp70) on murine tumor cells (mouse) (UniProt Q61696); assay: flow cytometry, single cell suspension of CAC murine colon tumor
# [4] = target: membrane-bound Heat shock protein 70 (Hsp70) on murine tumor cells (mouse) (UniProt Q61696); assay: flow cytometry, single cell suspension of PDAC murine pancreas tumor
# [5] = target: membrane-bound Heat shock protein 70 (Hsp70) on human tumor cells (human) (UniProt P0DMV8); assay: flow cytometry, single cell suspension of in vivo-grown A549 human lung tumor
# [6] = target: membrane-bound Heat shock protein 70 (Hsp70) on human tumor cells (human) (UniProt P0DMV8); assay: flow cytometry, single cell suspension of in vivo-grown CX-2 human colon tumor
# [7] = target: membrane-bound Heat shock protein 70 (Hsp70) on murine tumor cells (mouse) (UniProt Q61696); assay: flow cytometry, single cell suspension of in vivo-grown CT26 murine colon tumor
# [8] = target: membrane-bound Heat shock protein 70 (Hsp70) on human tumor cells (human) (UniProt P0DMV8); assay: flow cytometry, single cell suspension of in vivo-grown H-1339 human lung tumor
# [9] = target: membrane-bound Heat shock protein 70 (Hsp70) on human tumor cells (human) (UniProt P0DMV8); assay: flow cytometry, single cell suspension of in vivo-grown HeLa human cervix tumor
# [10] = target: membrane-bound Heat shock protein 70 (Hsp70) on murine tumor cells (mouse) (UniProt Q61696); assay: flow cytometry, single cell suspension of in vivo-grown 4T1 murine mammary tumor
# [11] = target: membrane-bound Heat shock protein 70 (Hsp70) on human tumor cells (human) (UniProt P0DMV8); assay: flow cytometry, single cell suspension of in vivo-grown HCT-116 human colon tumor
# [12] = target: membrane-bound Heat shock protein 70 (Hsp70) on human tumor cells (human) (UniProt P0DMV8); assay: flow cytometry, single cell suspension of in vivo-grown MCF-7 human mammary tumor
# [13] = target: membrane-bound Heat shock protein 70 (Hsp70) on human tumor cells (human) (UniProt P0DMV8); assay: flow cytometry, single cell suspension of in vivo-grown T-47D human mammary tumor
# [14] = target: membrane-bound Heat shock protein 70 (Hsp70) on human tumor cells (human) (UniProt P0DMV8); assay: flow cytometry, single cell suspension of in vivo-grown Panc-1 human pancreas tumor
# [15] = target: membrane-bound Heat shock protein 70 (Hsp70) on human tumor cells (human) (UniProt P0DMV8); assay: flow cytometry, single cell suspension of in vivo-grown COLO357 human pancreas tumor
# [16] = target: membrane-bound Heat shock protein 70 (Hsp70) on human tumor cells (human) (UniProt P0DMV8); assay: flow cytometry, single cell suspension of in vivo-grown FaDu human head & neck tumor
# [17] = target: membrane-bound Heat shock protein 70 (Hsp70) on human tumor cells (human) (UniProt P0DMV8); assay: flow cytometry, single cell suspension of in vivo-grown MDA-MB231 human mammary tumor
# [18] = target: membrane-bound Heat shock protein 70 (Hsp70) on human tumor cells (human) (UniProt P0DMV8); assay: flow cytometry, single cell suspension of in vivo-grown Cal-33 human head & neck tumor
# [19] = target: membrane-bound Heat shock protein 70 (Hsp70) on human tumor cells (human) (UniProt P0DMV8); assay: flow cytometry, single cell suspension of in vivo-grown MIA PaCa-2 human pancreas tumor
# [20] = tested on: MCF7, MDA-MB-231, T47D cells; assay: Peptide uptake into human breast cancer cell lines by confocal microscopy; format: cell-based; conditions: 30 min at 37° C.
# Description: Human breast cancer cell lines (MCF7, MDA-MB-231, T47D) expressing different levels of membrane Hsp70 were incubated with CF-TPP or a scrambled peptide for 30 min at 37° C. and internalization of the peptides was imaged by confocal microscopy.
# Chain of membrane-bound Heat shock protein 70 (Hsp70) on murine tumor cells (mouse) (Q61696 2-641): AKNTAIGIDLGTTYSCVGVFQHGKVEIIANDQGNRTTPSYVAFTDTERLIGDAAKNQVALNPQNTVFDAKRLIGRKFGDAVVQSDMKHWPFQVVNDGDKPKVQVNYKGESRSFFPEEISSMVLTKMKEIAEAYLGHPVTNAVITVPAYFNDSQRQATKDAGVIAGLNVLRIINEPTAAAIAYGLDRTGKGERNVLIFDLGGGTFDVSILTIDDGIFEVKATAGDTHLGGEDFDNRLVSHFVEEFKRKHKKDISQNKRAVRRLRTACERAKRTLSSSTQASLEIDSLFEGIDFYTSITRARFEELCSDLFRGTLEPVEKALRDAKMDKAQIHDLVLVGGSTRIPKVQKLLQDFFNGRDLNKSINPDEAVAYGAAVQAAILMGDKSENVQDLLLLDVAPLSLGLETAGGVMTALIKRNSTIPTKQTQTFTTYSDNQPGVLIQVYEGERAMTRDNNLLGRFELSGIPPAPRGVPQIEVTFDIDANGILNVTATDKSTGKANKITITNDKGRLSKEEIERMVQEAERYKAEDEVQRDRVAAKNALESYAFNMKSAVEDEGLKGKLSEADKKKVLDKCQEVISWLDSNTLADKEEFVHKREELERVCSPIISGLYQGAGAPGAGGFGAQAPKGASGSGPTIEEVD
# Chain of membrane-bound Heat shock protein 70 (Hsp70) on human tumor cells (human) (P0DMV8 2-641): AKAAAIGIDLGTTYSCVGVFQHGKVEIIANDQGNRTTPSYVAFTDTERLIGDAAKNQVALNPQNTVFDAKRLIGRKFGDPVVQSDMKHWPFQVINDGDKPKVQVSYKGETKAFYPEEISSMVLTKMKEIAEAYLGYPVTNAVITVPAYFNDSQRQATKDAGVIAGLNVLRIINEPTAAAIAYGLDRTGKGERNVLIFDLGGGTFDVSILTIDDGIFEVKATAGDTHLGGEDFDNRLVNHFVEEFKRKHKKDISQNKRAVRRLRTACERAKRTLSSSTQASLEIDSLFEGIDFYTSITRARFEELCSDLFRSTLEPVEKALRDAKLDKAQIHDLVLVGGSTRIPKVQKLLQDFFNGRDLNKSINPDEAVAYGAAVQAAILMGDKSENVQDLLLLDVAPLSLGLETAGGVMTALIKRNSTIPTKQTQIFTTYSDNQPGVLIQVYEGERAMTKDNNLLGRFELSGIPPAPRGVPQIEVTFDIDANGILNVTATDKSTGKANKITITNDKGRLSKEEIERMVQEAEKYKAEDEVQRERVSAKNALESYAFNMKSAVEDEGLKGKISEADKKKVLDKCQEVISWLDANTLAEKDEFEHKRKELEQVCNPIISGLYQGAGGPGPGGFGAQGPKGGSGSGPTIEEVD
compound,measurement,setting,value
"CC(C)C[C@H](NC(=O)[C@H](CC(C)C)NC(=O)[C@H](CC(N)=O)NC(=O)[C@H](CC(N)=O)NC(=O)[C@H](CC(=O)O)NC(=O)[C@H](CCCCN)NC(=O)[C@@H](N)[C@@H](C)O)C(=O)NCC(=O)N[C@@H](CCCNC(=N)N)C(=O)N[C@@H](Cc1ccccc1)C(=O)N[C@@H](CCC(=O)O)C(=O)N[C@@H](CC(C)C)C(=O)N[C@@H](CO)C(=O)NCC(=O)O [TPP, TKDNNLLGRFELSG]",route of clearance,[1],cleared from the body by renal excretion
same,loss of weight or change in mobility,"[2]; BALB/c mice, i.v. 500 to 1050 μg",Nor did any animal exhibit any loss of weight or change in mobility
same,"gross monitoring for toxic reactions (skin ulcerations, toxic death)","[2]; BALB/c mice, i.v. 500 to 1050 μg (25 to 50 μg/g)",did not show any toxic reactions
same,"histological examination of heart, liver, spleen, lung and kidney",[2]; day 5 after injection,no pathological changes
same,side effects in tumor-bearing mice,[2]; up to 500 μg per mouse,did not exert any side effects
cmHsp70.1 monoclonal antibody (FITC-conjugated for flow cytometry),% membrane-positive cells,[3],51.2%
same,% membrane-positive cells,[4],50%
same,% membrane-positive cells,[5],76.3%
same,% membrane-positive cells,[6],56.6%
same,% membrane-positive cells,[7],55.5%
same,% membrane-positive cells,[8],60%
same,% membrane-positive cells,[9],55%
same,% membrane-positive cells,[10],56.3%
same,% membrane-positive cells,[11],63.3%
same,% membrane-positive cells,[12],58%
same,% membrane-positive cells,[13],48%
same,% membrane-positive cells,[14],46%
same,% membrane-positive cells,[15],57.8%
same,% membrane-positive cells,[16],59%
same,% membrane-positive cells,[17],63.3%
same,% membrane-positive cells,[18],68.1%
same,% membrane-positive cells,[19],58.5%
NGLTLKNDFSRLEG (scrambled control peptide),internalization into tumor cells,[20],not internalized
